The values below come from the nanobody polyreactivity screen of Harvey et al. (2022).

This data set in a line: yeast display, Sf9 membrane polyspecificity reagent, FACS + sequencing; frameworks hold sequencing errors. The essentials:
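Synthetic nanobody libraries on Saccharomyces cerevisiae BJ5465 were galactose-induced for 36–48 hours, stained 1 hour at 4 °C with 10% biotinylated, detergent-solubilized Sf9 membrane reagent and enriched on streptavidin microbeads. FACS then separated cells into low and high (top ~1%) gates by anti-HA (expression) and streptavidin (reagent binding) fluorescence. Genes were colony-PCR amplified, MiSeq 2 × 250 sequenced and CDR-length filtered. A clone's polyreactivity label is that of its gate of origin.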
Consider “QVQLVESGGGLVQAGGSLRLSCAASGITFLVYVMGWYRQAPGKERELVAAISSGGSTYYADSVKGRFTISRDNAKNTVYVQMNSLKPEDTAVYYCAAERKLYGLYDYWGQGTQVTVSS”, for which the “polyreactivity (PSR sort gate)” value is reported as “low polyreactivity”.

Regarding “QVQLVESGGGLVQAGGSLRLSCAASGSTFFLNAMGWYRQAPGKESEFVAAISYTSTSTYYADSVKGRFTISRDNAKNTVYLQMNSLKPEDTAVYYCAVDAAGWYYTVETGDYAEDYWGQGTQVTVSS”, the “polyreactivity (PSR sort gate)” value is “low polyreactivity”.

Turning to “QVQLVESGGGLVQAGGSLRLSCAASGSIFVGYAMGWYRQAPGKERELVAAISRSGGTTYYADSVKGRFTISRDTAKNTVYLQMNSLKPEDTAVYYCAAERWAYYRSGLWWPYDYWGQGTQVTVSS”, the “polyreactivity (PSR sort gate)” value is recorded as “high polyreactivity”.

Consider “QVQLVESGGGLVQAGGSLRLSCAASGRTFRYYAMGWYRKAPGKERELVATISKSGGSTYYADSVKGRFTISRDNAKNTVYLQMNSLKPEDTAVYYCAAVGPYRWYDYWGQGTQVTVSS”, for which the “polyreactivity (PSR sort gate)” value is on record as “high polyreactivity”.

Turning to “QVQLVESGGGLVQAGGSLRLSCAASGTTIKYYAMGWSRQAPGKERELVARITSDGGSTFYADSVKGRFTISRDNAKNTVYLQMNSLKPEDTAVYYCNTAYAFRHWWFYPMDYWGQGTQVTVSS”, the “polyreactivity (PSR sort gate)” value is “high polyreactivity”.

As to “QVQLVESGGGLVQAGGSLRFSCAASGFIFSFYAMGWYRQAPGKERELVAAISSSGSTNYADSVKGRFTISRDNAKNTVYLQMNSLKPEDTAVYYCAARWHRSRAGYYYWGQGTQVTVSS”, the “polyreactivity (PSR sort gate)” value is “high polyreactivity”.

As for “QGQLVESWGGLVQAGGSLRLSCAASGSTFCDYAMGWYRQAPGQERELVAAIDWSDGSTYYADSVKGRFTSSRDNAKNTGYLQMNSLKPEDTAVYYCAAEQWYGMYYWGQGTQVTVSS”, the “polyreactivity (PSR sort gate)” value is on record as “high polyreactivity”.

For the sequence “QVQLVESGGGLVQAGGSLRLSCAASGSTFSTNAMGWYRQAPGKERELVAAIRWRGGRTYYADSVKGRFTISRDNAKNTVYLQMNSLKPEDTAVYYCAADYSFTGHRYTYGYWGQGTQVTVSS”, the “polyreactivity (PSR sort gate)” value is listed as “high polyreactivity”.

Take “QVQLVESGGGLVQAGGTLRLSCAASGSIFRYYAMGWYRQAPGKERELVATITSTGGSTYYADSVKGRFTISRDNAKNTVYLQMNSLKPEDTAVYYCAARNKLYVTVRGYYLSGYWGQGTQVTVSS”: the “polyreactivity (PSR sort gate)” value is listed as “high polyreactivity”.

With “QVQLVESGGGLVQAGGSLRLSCAASGRIFVVYVMGWYRQAPGKEREFVAAITWGGGNTYYADSVKGRFTISRDNAKNTVYLQMNSLIPEDTAVYYCAAAPRKYVWMDYWGQGTQVTVSS”, the “polyreactivity (PSR sort gate)” value is “low polyreactivity”.

On to “QDQLVESGGGLVLSGGRLRLSCAASGSNFSFYAMGWYRQAPGKERELVAGIRWRGGTSTFYADSVKWRFTISRDNAKNTVYLQMNSLKPEDTAVYYCAAKRRTGGNGYWGQGTQVTVSS”, for which the “polyreactivity (PSR sort gate)” value was “high polyreactivity”.

For “QVQLVESGGGLVQAGGSLRLSCAASGIIFGSNTMGWYRQAPGKERELVAAITSSDGSTHYADSVKGRFTISRDNAKNTVYLQMNTLKPEDTAVYYCAARKVTYGHSYGYDYWGQGTQVTVSS”, the “polyreactivity (PSR sort gate)” value is given as “low polyreactivity”.

Regarding “QVQLVESGGGLVQAGGSLRLSCAASGSIFGYNAMGWYRQARGKERELVAAITSSGGSTYYADSVKGRFTISRDNSKNTVYLQMKSLKPEDTAVYYCNARDWYIVWYDYWGQGTQVTVSS”, the “polyreactivity (PSR sort gate)” value was “low polyreactivity”.

As to “QVQLVESGGGLVQAGGSLRLSCAASGITFYKYVMGWYRQAPGKERELVAAISSVGSTYYADSVKGRFTISRDNAKNTVYLQMNSLKPEDTAVYYCAAKYWKWYHYGFGYWGQGTQVTVSS”, the “polyreactivity (PSR sort gate)” value is “high polyreactivity”.

Turning to “QVQLVESGGGLVQAGGSLRLSCAASGITFVYYAMGWYRQAPGKERELVASISSGGSTYYADSVKGRFTISRDNAKNTVYLQMNSLKPEDTAVYYCAAPTGWYPAYCEYEYWGQGTQVTVSS”, the “polyreactivity (PSR sort gate)” value is “low polyreactivity”.

Consider “QDQHVESGGGLVQAGGSLRLSCDASGTTIYDYVMGWYRKAPGKERELVAAITRGGSTNYADSVKGRFTISRDNAKNTVYLQMNRLKPEDTAVYYCAARPCIWARAGYYWGQGTQVTVSS”, for which the “polyreactivity (PSR sort gate)” value was “high polyreactivity”.

With “QVQLVESGGGLVQAGGSLRLSCAASGRIFPYYDMGWYRQAPGKERELVAAITWNGGSTYYADSVKGRFTISRDNAKNTVFLQMNSLKPEDSAVYYCAVEPYYYGEDYWGQGTQVTVSS”, the “polyreactivity (PSR sort gate)” value was “low polyreactivity”.

For “QVQLVESGGGLVQAGGSLRLSCAASGFIFDEYTMGWYRQAPGKERELVAAITSSGGTDYADSVKGRFTISRDNAKNTVYLQMNSLKPEDTAVYYCNTEDYYRDYDYWGQGTQVTVSS”, the “polyreactivity (PSR sort gate)” value is reported as “low polyreactivity”.

As for “QVQLVESGGGLVQAGGSLRLSCAASGRIFQNNAMGWYRQAPGKERELVAAINIIDGVTYYADSVKGRFTISRDNAKNTVYLQMNSLKPEDTAVYYCNAVRRAHHRKYNYWGQGSQVTVSS”, the “polyreactivity (PSR sort gate)” value is “low polyreactivity”.

Turning to “QVQLVDSGGGLGQAVGILRLSCAASGNIFLYYAMGWYRQAPGKEREMVAAISWSGSSTYYADSVKGRFTISRYNAKNTVYLQMNSLKPEVTAVYYCNATTSSKDAFCFILVFGQGDYWGQGTQVSVSS”, the “polyreactivity (PSR sort gate)” value was “low polyreactivity”.

For the sequence “QVQLVESGGGLVQAGGSLRLSCAASGIIFVYYVMGWYRQAPGKERELVASIDGSGGSTNYADSVKGRFTISRDNAKNTVYLQMNSLKPEDTAVYYCNADNILYWSTLDYWGQGTQVTVSS”, the “polyreactivity (PSR sort gate)” value is “low polyreactivity”.

Take “QVQLVESAAGLVQAGGSLRLTCAASGLTFTTYAKGWYTQSPRKDRELVAAISRRGSRTYYADSVKGRFTISRDNAKNTVYLQMQSLKPDDTAVYYCNALTGSFKTDSFDYWGQGTQVTVSS”: the “polyreactivity (PSR sort gate)” value is given as “high polyreactivity”.

Take “QVQLVESGGGLVQAGGSLRLSCAASGRIFGNTMGWYRQAPGKERELVAAITRSGVSTYYADSVKGRFTISRDNAKNTVYLQMNSLKPEDTAVYYCAKVYSRRSVLSRYGSWGQGTQVTVSS”: the “polyreactivity (PSR sort gate)” value is “high polyreactivity”.

On to “QVQLVESGGGLVQAGGSLRLSCAASGIIFYPNAMGWYRQAPGKERELVAAISWRSGSTYYADSVKGRFTISRDNAKNTVYLQMNSLKPEDTAVYYCAADRRRSYIWRYDYWGQGTQVTVSS”, for which the “polyreactivity (PSR sort gate)” value is listed as “low polyreactivity”.

On to “QVQHVESGGGLVQAGGSLRLSCAASGRTFRNYAMGWYRQAPGKERELVAAISSGGSTNYADSVKGRFTISRDNAKNTVYLQMNSLKPEDTAVYYCAARQRAYYGPGFDYWGQGTQVTVSS”, for which the “polyreactivity (PSR sort gate)” value is on record as “low polyreactivity”.

Regarding “QVQLVESGGGLVQAGGSLRLSCAASGRTFRWYAMGWYRQAPGKERELVAAITSDGRTYYADSVKGRFTISRDNAKNTVYLQMNSLNPEDTAVYYCNAACRYAFPFGYNYWGQGTQVTVSS”, the “polyreactivity (PSR sort gate)” value is listed as “high polyreactivity”.

Turning to “QVQLVESGGGLVQAGGSLRLSCASSGRTLPYNAMGWYRQAPGKERELVAAISKRGSSTYYADSVKGRFTLSRDNAKNTVYLQMNSLKPEDTAVYYCAKGGSFYYWGQGTQVTVSS”, the “polyreactivity (PSR sort gate)” value is listed as “high polyreactivity”.

“QVQLVESGGGLVQAGGSLRLSCAASGSIIFAYAMGWYRQAPGKERELVAAITTGVSTNYADSVKGRFTISRDNAKNTVYLQMNSLKPEDTAVYYCNADVDYGFDAGVAVQVVIHDYWGQGTQVTVSS”: the “polyreactivity (PSR sort gate)” value is reported as “low polyreactivity”.

As to “QVQLVESGGGLVQAGGSLRLSCAASGRIFVGYAMGWYRQAPGKERELVAAISSRGGSTYYADSVKGRFTISRDNAKNTVYLQMNSLKPEDTAVYYCAKVRTYRYYDGGDYWGQGTQVTVSS”, the “polyreactivity (PSR sort gate)” value is given as “high polyreactivity”.

“QVQLVESGGGLDQAGGSLRLSCAASGSTFESNAMGWYRQAPGKERELVAAISWRVGSTYYADSVKGRFTISRDNAKNTDYLQMHSLKPEDTAVYYCASKGWYSHYGGYDYWGQGTQVTVSS”: the “polyreactivity (PSR sort gate)” value was “low polyreactivity”.
